± gives the uncertainty stated by the source.

B1: Nucleolar transcription factor 1, residues 408 to 469; numbered along this chain, P17480 (parent)
chain: KRPVSAMFIFSEEKRRQLQEERPELSESELTRLLARMWNDLSEKKKAKYKAREAALKAQSER

Variants of B1 are the subject of this series. In words: abundance fitness (aPCA) (normalised: wild type 0, dead -1); higher = more abundant; growth selection in yeast, the domain comes from the species named. The settings on record: Homo sapiens.
For the variant KRPVSAMFIFSEEKRAQLQEERPELSESELTRLLARMWNDLSEKKKAKYKAREAALKAQSER [R16A], the abundance fitness was -0.027 ± 0.051.

Regarding KRPVSAMFIFSEEKRIQLQEERPELSESELTRLLARMWNDLSEKKKAKYKAREAALKAQSER [R16I], the abundance fitness was -0.11 ± 0.13.

KRPVSAMFIFSEEKRHQLQEERPELSESELTRLLARMWNDLSEKKKAKYKAREAALKAQSER [R16H]: the abundance fitness is -0.071 ± 0.07.

For the variant KRPVSAMFIFSEEKRKQLQEERPELSESELTRLLARMWNDLSEKKKAKYKAREAALKAQSER [R16K], the abundance fitness was -0.073 ± 0.12.

Regarding KRPVSAMFIFSEEKRTQLQEERPELSESELTRLLARMWNDLSEKKKAKYKAREAALKAQSER [R16T], the abundance fitness is -0.078 ± 0.099.

Take KRPVSAMFIFSEEKRVQLQEERPELSESELTRLLARMWNDLSEKKKAKYKAREAALKAQSER [R16V]: the abundance fitness was -0.044 ± 0.053.

Take KRPVSAMFIFSEEKRSQLQEERPELSESELTRLLARMWNDLSEKKKAKYKAREAALKAQSER [R16S]: the abundance fitness is -0.001 ± 0.048.

As for KRPVSAMFIFSEEKRWQLQEERPELSESELTRLLARMWNDLSEKKKAKYKAREAALKAQSER [R16W], the abundance fitness was -0.106 ± 0.054.

For the variant KRPVSAMFIFSEEKRCQLQEERPELSESELTRLLARMWNDLSEKKKAKYKAREAALKAQSER [R16C], the abundance fitness was -0.012 ± 0.069.

Turning to KRPVSAMFIFSEEKRFQLQEERPELSESELTRLLARMWNDLSEKKKAKYKAREAALKAQSER [R16F], the abundance fitness is -0.147 ± 0.1.

For the variant KRPVSAMFIFSEEKRGQLQEERPELSESELTRLLARMWNDLSEKKKAKYKAREAALKAQSER [R16G], the abundance fitness was -0.037 ± 0.043.

For the variant KRPVSAMFIFSEEKRRQDQEERPELSESELTRLLARMWNDLSEKKKAKYKAREAALKAQSER [L18D], the abundance fitness is -1.5 ± 0.23.

As to KRPVSAMFIFSEEKRRQGQEERPELSESELTRLLARMWNDLSEKKKAKYKAREAALKAQSER [L18G], the abundance fitness was -1 ± 0.055.

With KRPVSAMFIFSEEKRRQVQEERPELSESELTRLLARMWNDLSEKKKAKYKAREAALKAQSER [L18V], the abundance fitness is -0.021 ± 0.041.

On to KRPVSAMFIFSEEKRRQTQEERPELSESELTRLLARMWNDLSEKKKAKYKAREAALKAQSER [L18T], for which the abundance fitness is -0.092 ± 0.074.

Turning to KRPVSAMFIFSEEKRRQRQEERPELSESELTRLLARMWNDLSEKKKAKYKAREAALKAQSER [L18R], the abundance fitness is -0.965 ± 0.052.

Regarding KRPVSAMFIFSEEKRRQYQEERPELSESELTRLLARMWNDLSEKKKAKYKAREAALKAQSER [L18Y], the abundance fitness was -0.063 ± 0.1.

For the variant KRPVSAMFIFSEEKRRQSQEERPELSESELTRLLARMWNDLSEKKKAKYKAREAALKAQSER [L18S], the abundance fitness is -0.632 ± 0.058.

On to KRPVSAMFIFSEEKRRQCQEERPELSESELTRLLARMWNDLSEKKKAKYKAREAALKAQSER [L18C], for which the abundance fitness is -0.127 ± 0.055.

With KRPVSAMFIFSEEKRRQPQEERPELSESELTRLLARMWNDLSEKKKAKYKAREAALKAQSER [L18P], the abundance fitness is -1.37 ± 0.14.

For the variant KRPVSAMFIFSEEKRRQNQEERPELSESELTRLLARMWNDLSEKKKAKYKAREAALKAQSER [L18N], the abundance fitness was -0.98 ± 0.11.

Turning to KRPVSAMFIFSEEKRRQMQEERPELSESELTRLLARMWNDLSEKKKAKYKAREAALKAQSER [L18M], the abundance fitness is -0.108 ± 0.058.

As to KRPVSAMFIFSEEKRRQHQEERPELSESELTRLLARMWNDLSEKKKAKYKAREAALKAQSER [L18H], the abundance fitness is -0.639 ± 0.12.

For KRPVSAMFIFSEEKRRQFQEERPELSESELTRLLARMWNDLSEKKKAKYKAREAALKAQSER [L18F], the abundance fitness is -0.085 ± 0.13.

For KRPVSAMFIFSEEKRRQWQEERPELSESELTRLLARMWNDLSEKKKAKYKAREAALKAQSER [L18W], the abundance fitness was -0.338 ± 0.047.

For KRPVSAMFIFSEEKRRQEQEERPELSESELTRLLARMWNDLSEKKKAKYKAREAALKAQSER [L18E], the abundance fitness was -0.664 ± 0.06.

For the variant KRPVSAMFIFSEEKRRQQQEERPELSESELTRLLARMWNDLSEKKKAKYKAREAALKAQSER [L18Q], the abundance fitness is -0.531 ± 0.11.

With KRPVSAMFIFSEEKRRQAQEERPELSESELTRLLARMWNDLSEKKKAKYKAREAALKAQSER [L18A], the abundance fitness is -0.167 ± 0.052.

Regarding KRPVSAMFIFSEEKRRQLMEERPELSESELTRLLARMWNDLSEKKKAKYKAREAALKAQSER [Q19M], the abundance fitness was found to be 0.012 ± 0.055.

Turning to KRPVSAMFIFSEEKRRQLFEERPELSESELTRLLARMWNDLSEKKKAKYKAREAALKAQSER [Q19F], the abundance fitness is -0.26 ± 0.11.

In the case of KRPVSAMFIFSEEKRRQLSEERPELSESELTRLLARMWNDLSEKKKAKYKAREAALKAQSER [Q19S], the abundance fitness was -0.02 ± 0.041.

In the case of KRPVSAMFIFSEEKRRQLKEERPELSESELTRLLARMWNDLSEKKKAKYKAREAALKAQSER [Q19K], the abundance fitness turned out to be 0.007 ± 0.068.

Turning to KRPVSAMFIFSEEKRRQLAEERPELSESELTRLLARMWNDLSEKKKAKYKAREAALKAQSER [Q19A], the abundance fitness is -0.036 ± 0.06.

On to KRPVSAMFIFSEEKRRQLTEERPELSESELTRLLARMWNDLSEKKKAKYKAREAALKAQSER [Q19T], for which the abundance fitness is -0.128 ± 0.065.

For KRPVSAMFIFSEEKRRQLEEERPELSESELTRLLARMWNDLSEKKKAKYKAREAALKAQSER [Q19E], the abundance fitness was -0.067 ± 0.054.

On to KRPVSAMFIFSEEKRRQLIEERPELSESELTRLLARMWNDLSEKKKAKYKAREAALKAQSER [Q19I], for which the abundance fitness turned out to be 0.009 ± 0.091.

Consider KRPVSAMFIFSEEKRRQLGEERPELSESELTRLLARMWNDLSEKKKAKYKAREAALKAQSER [Q19G], for which the abundance fitness is -0.076 ± 0.039.

For KRPVSAMFIFSEEKRRQLNEERPELSESELTRLLARMWNDLSEKKKAKYKAREAALKAQSER [Q19N], the abundance fitness was -0.129 ± 0.074.

Take KRPVSAMFIFSEEKRRQLLEERPELSESELTRLLARMWNDLSEKKKAKYKAREAALKAQSER [Q19L]: the abundance fitness is -0.017 ± 0.041.

Regarding KRPVSAMFIFSEEKRRQLCEERPELSESELTRLLARMWNDLSEKKKAKYKAREAALKAQSER [Q19C], the abundance fitness is -0.083 ± 0.063.

In the case of KRPVSAMFIFSEEKRRQLHEERPELSESELTRLLARMWNDLSEKKKAKYKAREAALKAQSER [Q19H], the abundance fitness is -0.099 ± 0.084.

Take KRPVSAMFIFSEEKRRQLREERPELSESELTRLLARMWNDLSEKKKAKYKAREAALKAQSER [Q19R]: the abundance fitness is -0.016 ± 0.041.

For KRPVSAMFIFSEEYRRQLQEERPELSESELTRLLARMWNDLSEKKKAKYKAREAALKAQSER [K14Y], the abundance fitness was -0.038 ± 0.064.
